Reference: US11833164B2, “Methods of treating Fabry disease in patients having a mutation in the GLA gene” (Amicus Therapeutics, Inc., priority 2019, dated 2023)

System: mutant form of α-Gal A expressed in HEK-293 cells
Test: HEK assay (GLP HEK / Migalastat Amenability Assay): α-Gal A activity in lysates of transiently transfected HEK-293 cells incubated with or without 10 μM migalastat
Format: cell-based, human
Conditions: for Absolute increase (% WT): 10 μM migalastat versus baseline; for 10 μM migalastat α-Gal A activity (% WT): 5 days; for 10 μM migalastat α-Gal A activity (% WT) / Baseline α-Gal A activity (% WT): percentage of baseline wild-type α-Gal A activity; for 10 μM migalastat α-Gal A activity (% WT) / 10 μM migalastat α-Gal A activity / Baseline α-Gal A activity (% WT) / Baseline α-Gal A activity: mean ± SEM; for 10 μM migalastat α-Gal A activity / Baseline α-Gal A activity: lysates of HEK-293 cells transfected with the mutant form; for 10 μM migalastat α-Gal A activity: incubated 5 days with 10 μM migalastat; for Relative increase: 10 μM migalastat α-Gal A activity relative to baseline; for Baseline α-Gal A activity: incubated 5 days in the absence of migalastat
Method in brief: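 Activity reported as 4-MU released (nmol/mg/hr), mean±SEM, from lysates of transiently transfected HEK-293 cells expressing mutant α-Gal A, cultured with or without 10 μM migalastat.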

B1: G147A (protein)
chain: MQLRNPELHLGCALALRFLALVSWDIPGARALDNGLARTPTMGWLHWERFMCNLDCQEEPDSCISEKLFMEMAELMVSEGWKDAGYEYLCIDDCWMAPQRDSEGRLQADPQRFPHGIRQLANYVHSKGLKLGIYADVGNKTCAGFPASFGYYDIDAQTFADWGVDLLKFDGCYCDSLENLADGYKHMSLALNRTGRSIVYSCEWPLYMWPFQKPNYTEIRQYCNHWRNFADIDDSWKSIKSILDWTSFNQERIVDVAGPGGWNDPDMLVIGNFGLSWNQQVTQMALWAIMAAPLFMSNDLRHISPQAKALLQDKDVIAINQDPLGKQGYQLRQGDNFEVWERPLSGLAWAVAMINRQEIGGPRSYTIAVASLGKGVACNPACFITQLLPVKRKLGFYEWTSRLRSHINPTGTVLLQLENTMQMSLKDLL
- Absolute increase (% WT): 3.0 % WT
- 10 μM migalastat α-Gal A activity (% WT): 3 ± 0.2 % WT
- Baseline α-Gal A activity (nmol/mg/hr) (absence of migalastat, mean activity below the limit of detection (<142 nmol/mg/hr)): BLD (“BLD” indicates that the mean α-Gal A activity was below the limit of detection (<142 nmol/mg/hr))
- 10 μM migalastat α-Gal A activity: 1159 ± 74 nmol/mg/h

B2: Y151D (protein)
chain: MQLRNPELHLGCALALRFLALVSWDIPGARALDNGLARTPTMGWLHWERFMCNLDCQEEPDSCISEKLFMEMAELMVSEGWKDAGYEYLCIDDCWMAPQRDSEGRLQADPQRFPHGIRQLANYVHSKGLKLGIYADVGNKTCAGFPGSFGDYDIDAQTFADWGVDLLKFDGCYCDSLENLADGYKHMSLALNRTGRSIVYSCEWPLYMWPFQKPNYTEIRQYCNHWRNFADIDDSWKSIKSILDWTSFNQERIVDVAGPGGWNDPDMLVIGNFGLSWNQQVTQMALWAIMAAPLFMSNDLRHISPQAKALLQDKDVIAINQDPLGKQGYQLRQGDNFEVWERPLSGLAWAVAMINRQEIGGPRSYTIAVASLGKGVACNPACFITQLLPVKRKLGFYEWTSRLRSHINPTGTVLLQLENTMQMSLKDLL
- Absolute increase (% WT): 11.5 % WT
- Relative increase: 1.4
- 10 μM migalastat α-Gal A activity (% WT): 40.8 ± 2.2 % WT
- Baseline α-Gal A activity (% WT) (absence of migalastat): 29.3 ± 1.7 % WT
- Baseline α-Gal A activity: 10673 ± 604 nmol/mg/h
- 10 μM migalastat α-Gal A activity: 15196 ± 1025 nmol/mg/h

B3: Y151C (protein)
chain: MQLRNPELHLGCALALRFLALVSWDIPGARALDNGLARTPTMGWLHWERFMCNLDCQEEPDSCISEKLFMEMAELMVSEGWKDAGYEYLCIDDCWMAPQRDSEGRLQADPQRFPHGIRQLANYVHSKGLKLGIYADVGNKTCAGFPGSFGCYDIDAQTFADWGVDLLKFDGCYCDSLENLADGYKHMSLALNRTGRSIVYSCEWPLYMWPFQKPNYTEIRQYCNHWRNFADIDDSWKSIKSILDWTSFNQERIVDVAGPGGWNDPDMLVIGNFGLSWNQQVTQMALWAIMAAPLFMSNDLRHISPQAKALLQDKDVIAINQDPLGKQGYQLRQGDNFEVWERPLSGLAWAVAMINRQEIGGPRSYTIAVASLGKGVACNPACFITQLLPVKRKLGFYEWTSRLRSHINPTGTVLLQLENTMQMSLKDLL
- Absolute increase (% WT): 13.2 % WT
- Relative increase: 1.4
- 10 μM migalastat α-Gal A activity (% WT): 45.6 ± 2 % WT
- Baseline α-Gal A activity (% WT) (absence of migalastat): 32.4 ± 1.5 % WT
- Baseline α-Gal A activity: 11271 ± 579 nmol/mg/h
- 10 μM migalastat α-Gal A activity: 15859 ± 752 nmol/mg/h

B4: S148G (protein)
chain: MQLRNPELHLGCALALRFLALVSWDIPGARALDNGLARTPTMGWLHWERFMCNLDCQEEPDSCISEKLFMEMAELMVSEGWKDAGYEYLCIDDCWMAPQRDSEGRLQADPQRFPHGIRQLANYVHSKGLKLGIYADVGNKTCAGFPGGFGYYDIDAQTFADWGVDLLKFDGCYCDSLENLADGYKHMSLALNRTGRSIVYSCEWPLYMWPFQKPNYTEIRQYCNHWRNFADIDDSWKSIKSILDWTSFNQERIVDVAGPGGWNDPDMLVIGNFGLSWNQQVTQMALWAIMAAPLFMSNDLRHISPQAKALLQDKDVIAINQDPLGKQGYQLRQGDNFEVWERPLSGLAWAVAMINRQEIGGPRSYTIAVASLGKGVACNPACFITQLLPVKRKLGFYEWTSRLRSHINPTGTVLLQLENTMQMSLKDLL
- Absolute increase (% WT): 11.8 % WT
- Relative increase: 11.2
- 10 μM migalastat α-Gal A activity (% WT): 12.9 ± 1 % WT
- Baseline α-Gal A activity (% WT) (absence of migalastat): 1.1 ± 0.1 % WT
- Baseline α-Gal A activity: 435 ± 55 nmol/mg/h
- 10 μM migalastat α-Gal A activity: 4879 ± 263 nmol/mg/h

B5: S148T (protein)
chain: MQLRNPELHLGCALALRFLALVSWDIPGARALDNGLARTPTMGWLHWERFMCNLDCQEEPDSCISEKLFMEMAELMVSEGWKDAGYEYLCIDDCWMAPQRDSEGRLQADPQRFPHGIRQLANYVHSKGLKLGIYADVGNKTCAGFPGTFGYYDIDAQTFADWGVDLLKFDGCYCDSLENLADGYKHMSLALNRTGRSIVYSCEWPLYMWPFQKPNYTEIRQYCNHWRNFADIDDSWKSIKSILDWTSFNQERIVDVAGPGGWNDPDMLVIGNFGLSWNQQVTQMALWAIMAAPLFMSNDLRHISPQAKALLQDKDVIAINQDPLGKQGYQLRQGDNFEVWERPLSGLAWAVAMINRQEIGGPRSYTIAVASLGKGVACNPACFITQLLPVKRKLGFYEWTSRLRSHINPTGTVLLQLENTMQMSLKDLL
- Absolute increase (% WT): 15.9 % WT
- Relative increase: 1.2
- 10 μM migalastat α-Gal A activity (% WT): 82.4 ± 3.7 % WT
- Baseline α-Gal A activity (% WT) (absence of migalastat): 66.5 ± 3.8 % WT
- Baseline α-Gal A activity: 24827 ± 1221 nmol/mg/h
- 10 μM migalastat α-Gal A activity: 30620 ± 813 nmol/mg/h

B6: S148C (protein)
chain: MQLRNPELHLGCALALRFLALVSWDIPGARALDNGLARTPTMGWLHWERFMCNLDCQEEPDSCISEKLFMEMAELMVSEGWKDAGYEYLCIDDCWMAPQRDSEGRLQADPQRFPHGIRQLANYVHSKGLKLGIYADVGNKTCAGFPGCFGYYDIDAQTFADWGVDLLKFDGCYCDSLENLADGYKHMSLALNRTGRSIVYSCEWPLYMWPFQKPNYTEIRQYCNHWRNFADIDDSWKSIKSILDWTSFNQERIVDVAGPGGWNDPDMLVIGNFGLSWNQQVTQMALWAIMAAPLFMSNDLRHISPQAKALLQDKDVIAINQDPLGKQGYQLRQGDNFEVWERPLSGLAWAVAMINRQEIGGPRSYTIAVASLGKGVACNPACFITQLLPVKRKLGFYEWTSRLRSHINPTGTVLLQLENTMQMSLKDLL
- Absolute increase (% WT): 19.3 % WT
- Relative increase: 1.6
- 10 μM migalastat α-Gal A activity (% WT): 49.5 ± 2 % WT
- Baseline α-Gal A activity (% WT) (absence of migalastat): 30.2 ± 2.2 % WT
- Baseline α-Gal A activity: 11927 ± 1020 nmol/mg/h
- 10 μM migalastat α-Gal A activity: 19343 ± 919 nmol/mg/h

B7: F149C (protein)
chain: MQLRNPELHLGCALALRFLALVSWDIPGARALDNGLARTPTMGWLHWERFMCNLDCQEEPDSCISEKLFMEMAELMVSEGWKDAGYEYLCIDDCWMAPQRDSEGRLQADPQRFPHGIRQLANYVHSKGLKLGIYADVGNKTCAGFPGSCGYYDIDAQTFADWGVDLLKFDGCYCDSLENLADGYKHMSLALNRTGRSIVYSCEWPLYMWPFQKPNYTEIRQYCNHWRNFADIDDSWKSIKSILDWTSFNQERIVDVAGPGGWNDPDMLVIGNFGLSWNQQVTQMALWAIMAAPLFMSNDLRHISPQAKALLQDKDVIAINQDPLGKQGYQLRQGDNFEVWERPLSGLAWAVAMINRQEIGGPRSYTIAVASLGKGVACNPACFITQLLPVKRKLGFYEWTSRLRSHINPTGTVLLQLENTMQMSLKDLL
- Absolute increase (% WT): 13.9 % WT
- Relative increase: 1.3
- 10 μM migalastat α-Gal A activity (% WT): 60.9 ± 6.4 % WT
- Baseline α-Gal A activity (% WT) (absence of migalastat): 47 ± 4.4 % WT
- Baseline α-Gal A activity: 15198 ± 1188 nmol/mg/h
- 10 μM migalastat α-Gal A activity: 19032 ± 1272 nmol/mg/h

B8: G150V (protein)
chain: MQLRNPELHLGCALALRFLALVSWDIPGARALDNGLARTPTMGWLHWERFMCNLDCQEEPDSCISEKLFMEMAELMVSEGWKDAGYEYLCIDDCWMAPQRDSEGRLQADPQRFPHGIRQLANYVHSKGLKLGIYADVGNKTCAGFPGSFVYYDIDAQTFADWGVDLLKFDGCYCDSLENLADGYKHMSLALNRTGRSIVYSCEWPLYMWPFQKPNYTEIRQYCNHWRNFADIDDSWKSIKSILDWTSFNQERIVDVAGPGGWNDPDMLVIGNFGLSWNQQVTQMALWAIMAAPLFMSNDLRHISPQAKALLQDKDVIAINQDPLGKQGYQLRQGDNFEVWERPLSGLAWAVAMINRQEIGGPRSYTIAVASLGKGVACNPACFITQLLPVKRKLGFYEWTSRLRSHINPTGTVLLQLENTMQMSLKDLL
- Absolute increase (% WT): 9.2 % WT
- Relative increase: 4.3
- 10 μM migalastat α-Gal A activity (% WT): 12.1 ± 0.7 % WT
- Baseline α-Gal A activity (% WT) (absence of migalastat): 2.9 ± 0.1 % WT
- Baseline α-Gal A activity: 1080 ± 63 nmol/mg/h
- 10 μM migalastat α-Gal A activity: 4639 ± 361 nmol/mg/h

B9: G150E (protein)
chain: MQLRNPELHLGCALALRFLALVSWDIPGARALDNGLARTPTMGWLHWERFMCNLDCQEEPDSCISEKLFMEMAELMVSEGWKDAGYEYLCIDDCWMAPQRDSEGRLQADPQRFPHGIRQLANYVHSKGLKLGIYADVGNKTCAGFPGSFEYYDIDAQTFADWGVDLLKFDGCYCDSLENLADGYKHMSLALNRTGRSIVYSCEWPLYMWPFQKPNYTEIRQYCNHWRNFADIDDSWKSIKSILDWTSFNQERIVDVAGPGGWNDPDMLVIGNFGLSWNQQVTQMALWAIMAAPLFMSNDLRHISPQAKALLQDKDVIAINQDPLGKQGYQLRQGDNFEVWERPLSGLAWAVAMINRQEIGGPRSYTIAVASLGKGVACNPACFITQLLPVKRKLGFYEWTSRLRSHINPTGTVLLQLENTMQMSLKDLL
- Absolute increase (% WT): 12.3 % WT
- Relative increase: 1.2
- 10 μM migalastat α-Gal A activity (% WT): 73.8 ± 7 % WT
- Baseline α-Gal A activity (% WT) (absence of migalastat): 61.5 ± 6.6 % WT
- Baseline α-Gal A activity: 18804 ± 1070 nmol/mg/h
- 10 μM migalastat α-Gal A activity: 22710 ± 1059 nmol/mg/h
